Molecular target: hemagglutinin H3 A/Perth/16/2009 (influenza A virus H3)
Assay: Biolayer Interferometry (ForteBio Octet), kinetic analysis, apparent affinity

Substance	Kd [µM]
C05 CDR1 variant E27d-A (antibody)	0.028
C05 CDR1 variant F27b-A (antibody)	0.46
C05 CDR1 variant G27c-A (antibody)	0.033
C05 CDR1 variant Y31A (antibody)	0.55
C05 CDR1 variant Y31F (antibody)	0.0068
C05 CDR1 variant Y31L (antibody)	0.56
C05 CDR1 variant del(FGEST) (antibody)	1.3

Molecular target: hemagglutinin of H3N2 Hong Kong/68 (influenza A virus H3N2)
Assay: as above

Substance	Kd [µM]
C05 CDR1 variant E27d-A (antibody)	0.54
C05 CDR1 variant F27b-A (antibody)	0.61
C05 CDR1 variant G27c-A (antibody)	0.45
C05 CDR1 variant Y31A (antibody)	0.64
C05 CDR1 variant Y31F (antibody)	0.42
C05 CDR1 variant Y31L (antibody)	1.4
C05 CDR1 variant del(FGEST) (antibody)	0.69
